Positions count from the first letter of the chain named. In names and notes the source's numbering stands.
B1: antibody 38F5 (antibody, V domains shown)
VH: EVMLVESGGALVKPGGSLKLSCTASGFTFSNYAMSWVRQTPEKRLEWVAQTISSGGRYTYYPDSVKGRFTISRDNARNTLYLQMSSLRSEDTAMYYCVRRYYGNSYWYFDVWGAGTTVTVSS
VL: DIVMTQSPSSLSVSAGEKVTMNCKSSQSLLNSGNQKHYLTWYQQKPGQPPKLLIYGASTRGSGVPDRFTGSGSGTDFTLTISSVQAEDLAVYYCQNDHSYPYTFGGGTKLEIK
notes: Mouse hybridoma antibody
B2: antibody 3G8 (antibody, V domains shown)
VH: EIQLQQSGAELVKPGASVKISCMASGYSFTGYNMNWVKQSHGKGLEWIGNINPYYDSTSYNQKFKGKATLTVDKSSSTAYMQLNSLTSEDSAVYYCARENYDFVGFAYWGQGTLVTVSA
VL: QIVLSQSPAILSASPGEKVTMTCRASSSVSYMHWFQQKPGSSPKPWIYVTSNLASGVPPRFSGSGSGTSYSLTISRVEAEDAATYYCQQWSTNPLTFGAGTKLELK
notes: Mouse hybridoma antibody
B3: antibody 62F2 (antibody, V domains shown)
VH: DVQLQESGPDLVKPSQSLSLTCTVTGYSITSGYSLHWIRQFPGNKLEWMGYIHYSGSTNYNPSLKSRISITRDTSKNQFFLKLNSVTSEDTATYHCARAWDYLDYWGQGTTLTVSS
VL: DIQMTQSPASLSASVGETVTITCRASENIYSQLAWYQQKQGKSPQLLVYDAKTLAEGVPSRFSGSGSDTQFSLKIISLQPEDFGRYYCHHHFGILYTFGGGTKLEMK
notes: Mouse hybridoma antibody
B4: antibody 15C12 (antibody, V domains shown)
VH: EIQLQQSGAELEKPGASVKISCKASGYSFTGYNMHWVKQSHGKSLEWIGNINPYYGTTNSNQKFEDKATLTVDKSSSTAYMQLNSLTSEDSAVYYCARGIYYYGTGYPYFDFWGQGTTLTVSS
VL: DIQMTQTTSSLSASLGDRVTISCRASQDINNYLNWYLQKPDGTVKLLIYYTSRLHSGVPSRFSGSGSGTDYSLTISNLEQEDLATYFCQQGITLPWTFGGGTKLEIK
notes: Mouse hybridoma antibody
B5: antibody 28C3 (antibody, V domains shown)
VH: QVQLQQSGPELVKPGASVKISCKASGYAFNSCWMNWVKQRPGKGLEWIGRIYPGDGDTNYNGKFKGKATLTADKSSTTAYMQLSSLTSEDSAVYFCAREGRNYGYEDYWGQGTTLTVSS
VL: DIVLTQSPASLAVSLGQRATISCKASQSVDYDGDSYMNWYQQKPGQPPKLLIYAASDLESGIPARFSGSGSGTDFTLNIHPVEEEDAATYYCQQANEDPRTFGGGTKLEIK
notes: Mouse hybridoma antibody
B6: antibody 62B11 (antibody, V domains shown)
VH: EVKLVESGGGLVQPGGSLKLSCAASGFTFSSYTMSWVRQTPEKRLEWVAYISSGGGTTYYPDTVKGRFTVSRDNAKNTLYLQMSSLRSEDTAMYSCARRYYRGSSLWYFDVWGAGTTVTVSS
VL: DIVMTQSPSSLTVTAGEKVTMSCKSSQSLFNSGSQKNFLTWYQQRPGQPPKLLIYWASTRESGVPDRFTGSGSGTDFTLTISSVQAEDLAVYYCQNDYSYPLTFGAGTKLELK
notes: Mouse hybridoma antibody
B7: antibody 27A8 (antibody, V domains shown)
VH: QVQLLQPGAEFVKPGASVKLSCKASGYTFTDYWINWVKQRPGQGLEWIGNIYPGSTSANYNEKFKSKATLTIDTSSITAYMQLSSLTSDDSAVYYCARYGYDSWFAYWGQGTLVTVSA
VL: DVVLTQTPLSLPVNIGDQASISCKSTKSLLNSDGFTYLDWFLQKPGQSPHLLIYLVSNRFSGIPDRFSGSGSETDFTLKISRVEAEDLGVYYCFQSNYLPLTFGSGTKLEIK
B8: antibody 63A3 (antibody, V domains shown)
VH: DVQLQESGPGLVKPSQSLSLTCSVTGYSITSGYYWNWIRQFPGNKLEWMGYIRYDGSNNYNPSLKNRISITRDTSKNQVFLKLNSVTPEDTATYYCARHYGYDGGAFDFWGQGTTLTVSS
VL: DIQMTQSPASLSASVGETVTITCRTSENIYNYLVWYQQKQGKSPQLLVYNAKTLEEGVPSRFSGSGSGTQFSLKVNSLQPEDFGSYYCQHHYGTPFTFGSGTKLEIK
notes: Mouse hybridoma antibody
B9: antibody 3D8 (antibody, V domains shown)
VH: EIQLQQSGAELVKPGASVKISCKASGYSFTGYNMNWVKQSHGKSLEWIGNINPYYGSTNYNQKFKGKATLTVDKSSTTAYMQLDSLTSEDSAVYYCARGYYGGNYPFAYWGQGTLVTVSA
VL: B8 VL with T25A, N31S, V34A, E55A, V75I, H91Y, F96Y, S100G, T102S, L104V
notes: Mouse hybridoma antibody raised against human C3
B10: antibody Hz38G10(G56A) (antibody, human IgG1, kappa, V domains shown)
VH: QVQLVQSGAEVKKPGASVKVSCKASGYTFTDFYMDWVRQAPGQRLEWMGYIYPHNAGTTYNQQFTGRVTITVDKSASTAYMELSSLRSEDTAVYYCARRGGFDFDYWGQGTLVTVSS
VL: DIQMTQSPSSLSASVGDRVTITCKASENVDTYVSWYQQKPGKAPKLLIYGASNRYTGVPSRFSGSGSGTDFTFTISSLQPEDIATYHCGQSHSYPLTFGQGTKLEIKR
notes: the light chain is the Hz38G10 light chain
B11: antibody Hz38G10(N55D) (antibody, V domains shown)
VH: B10 VH with N55D, A56G
VL: DIQMTQSPSSLSASVGDRVTITCKASENVDTYVSWYQQKPGKAPKLLIYGASNRYTGVPSRFSGSGSGTDFTFTISSLQPEDIATYHCGQSHSYPLTFGQGTKLEIK
notes: Variant of Hz38G10 with N55D in the heavy chain CDR2, mimicking a fully deamidated molecule
B12: antibody Hz38G10(N55E) (antibody, V domains shown)
VH: B10 VH with N55E, A56G
VL: B11 VL
notes: Variant of Hz38G10
B13: antibody Hz38G10(N55Q) (antibody, V domains shown)
VH: B10 VH with N55Q, A56G
VL: B11 VL
notes: Variant of Hz38G10
B14: antibody Hz38G10(G56T) (antibody, V domains shown)
VH: B10 VH with A56T
VL: B11 VL
notes: Variant of Hz38G10
B15: Fab version of Hz38G10 (Fab, V domains shown)
VH: B10 VH with A56G
VL: B11 VL

Target: T1, cynomolgus monkey complement component C3 (cynomolgus monkey, UniProt P01024 24-1663 (human entry))
T1 sequence (P01024 other isoform, or with tags, fused parts or gaps): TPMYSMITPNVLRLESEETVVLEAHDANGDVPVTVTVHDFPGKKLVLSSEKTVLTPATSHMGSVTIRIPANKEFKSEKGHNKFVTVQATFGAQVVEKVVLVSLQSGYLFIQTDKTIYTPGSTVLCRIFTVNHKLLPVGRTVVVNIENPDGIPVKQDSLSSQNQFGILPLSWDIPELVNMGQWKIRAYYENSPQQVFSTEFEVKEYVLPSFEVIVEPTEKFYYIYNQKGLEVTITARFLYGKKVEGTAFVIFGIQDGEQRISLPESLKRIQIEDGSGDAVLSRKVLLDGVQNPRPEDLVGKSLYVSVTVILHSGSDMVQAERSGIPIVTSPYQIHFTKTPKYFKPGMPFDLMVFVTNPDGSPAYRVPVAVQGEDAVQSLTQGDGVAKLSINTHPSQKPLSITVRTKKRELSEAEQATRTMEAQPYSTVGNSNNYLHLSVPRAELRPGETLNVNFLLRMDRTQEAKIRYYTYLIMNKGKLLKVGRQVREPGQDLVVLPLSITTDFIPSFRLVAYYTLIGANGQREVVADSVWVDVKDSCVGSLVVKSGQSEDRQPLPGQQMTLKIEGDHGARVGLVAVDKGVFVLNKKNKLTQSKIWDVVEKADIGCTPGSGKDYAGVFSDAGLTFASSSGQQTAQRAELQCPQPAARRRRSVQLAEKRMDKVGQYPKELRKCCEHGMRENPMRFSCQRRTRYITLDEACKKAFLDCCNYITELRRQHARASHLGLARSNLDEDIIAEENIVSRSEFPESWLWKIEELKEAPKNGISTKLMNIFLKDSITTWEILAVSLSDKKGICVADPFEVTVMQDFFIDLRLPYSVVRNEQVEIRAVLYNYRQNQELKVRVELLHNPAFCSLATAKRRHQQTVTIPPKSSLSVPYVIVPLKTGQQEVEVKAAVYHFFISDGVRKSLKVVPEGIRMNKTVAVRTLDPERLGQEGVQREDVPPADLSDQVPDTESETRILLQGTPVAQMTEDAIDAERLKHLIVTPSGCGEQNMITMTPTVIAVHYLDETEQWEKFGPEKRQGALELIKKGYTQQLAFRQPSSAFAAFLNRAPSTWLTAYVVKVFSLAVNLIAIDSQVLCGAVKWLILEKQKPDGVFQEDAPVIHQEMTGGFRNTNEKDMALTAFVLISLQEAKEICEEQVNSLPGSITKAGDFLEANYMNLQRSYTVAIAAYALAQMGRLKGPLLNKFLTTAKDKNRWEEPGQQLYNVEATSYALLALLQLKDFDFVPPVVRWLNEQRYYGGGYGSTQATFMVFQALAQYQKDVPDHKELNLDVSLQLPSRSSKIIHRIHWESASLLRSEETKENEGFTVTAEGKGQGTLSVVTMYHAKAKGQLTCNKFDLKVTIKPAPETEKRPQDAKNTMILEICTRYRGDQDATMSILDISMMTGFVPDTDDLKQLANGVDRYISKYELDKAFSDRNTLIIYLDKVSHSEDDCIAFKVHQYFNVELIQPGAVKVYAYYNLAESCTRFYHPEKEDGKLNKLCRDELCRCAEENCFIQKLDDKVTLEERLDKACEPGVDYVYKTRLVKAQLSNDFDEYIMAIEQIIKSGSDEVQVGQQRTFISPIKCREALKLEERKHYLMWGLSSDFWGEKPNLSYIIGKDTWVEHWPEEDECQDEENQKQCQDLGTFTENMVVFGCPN
Experiment: cell-based or functional assay

Row | Binder | Hemolytic Assay IC50, Cyno AP | Hemolytic Assay IC50, Cyno CP
1 | B1 | 12.9 nM | 2.3 nM
2 | B2 | 20.9 nM | 102 nM
3 | B3 | 8.7 nM | 5.3 nM
4 | B4 | 8.8 nM | 
5 | B5 | 7.8 nM | 3.4 nM
6 | B6 | ~11 nM | ~1 nM
7 | B7 | 9.6 nM | 
8 | B8 | 3.4 nM | 1.6 nM
9 | B9 | 5.5 nM | 

Target: T2, human complement component C3 (human, UniProt P01024 23-667; P01024 672-1663)
T2 sequence (P01024 23-667, chain 1 of 2): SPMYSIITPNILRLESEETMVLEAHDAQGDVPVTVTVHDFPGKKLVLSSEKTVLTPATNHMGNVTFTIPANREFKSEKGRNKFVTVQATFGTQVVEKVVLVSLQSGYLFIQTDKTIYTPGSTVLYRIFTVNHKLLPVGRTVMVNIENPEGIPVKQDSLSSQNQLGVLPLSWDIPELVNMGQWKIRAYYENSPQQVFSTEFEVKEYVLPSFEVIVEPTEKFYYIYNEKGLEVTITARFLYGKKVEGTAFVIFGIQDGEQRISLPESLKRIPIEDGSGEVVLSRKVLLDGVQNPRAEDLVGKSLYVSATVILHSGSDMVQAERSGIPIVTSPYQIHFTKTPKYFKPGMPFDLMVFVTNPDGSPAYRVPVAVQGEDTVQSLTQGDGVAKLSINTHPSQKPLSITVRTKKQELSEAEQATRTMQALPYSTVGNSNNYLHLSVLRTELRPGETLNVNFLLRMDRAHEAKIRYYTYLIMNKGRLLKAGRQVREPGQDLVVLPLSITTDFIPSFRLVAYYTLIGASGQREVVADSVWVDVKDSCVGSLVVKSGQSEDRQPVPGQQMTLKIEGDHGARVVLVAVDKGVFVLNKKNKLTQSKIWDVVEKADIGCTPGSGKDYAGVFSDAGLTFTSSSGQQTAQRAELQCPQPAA
T2 sequence (P01024 672-1663, chain 2 of 2): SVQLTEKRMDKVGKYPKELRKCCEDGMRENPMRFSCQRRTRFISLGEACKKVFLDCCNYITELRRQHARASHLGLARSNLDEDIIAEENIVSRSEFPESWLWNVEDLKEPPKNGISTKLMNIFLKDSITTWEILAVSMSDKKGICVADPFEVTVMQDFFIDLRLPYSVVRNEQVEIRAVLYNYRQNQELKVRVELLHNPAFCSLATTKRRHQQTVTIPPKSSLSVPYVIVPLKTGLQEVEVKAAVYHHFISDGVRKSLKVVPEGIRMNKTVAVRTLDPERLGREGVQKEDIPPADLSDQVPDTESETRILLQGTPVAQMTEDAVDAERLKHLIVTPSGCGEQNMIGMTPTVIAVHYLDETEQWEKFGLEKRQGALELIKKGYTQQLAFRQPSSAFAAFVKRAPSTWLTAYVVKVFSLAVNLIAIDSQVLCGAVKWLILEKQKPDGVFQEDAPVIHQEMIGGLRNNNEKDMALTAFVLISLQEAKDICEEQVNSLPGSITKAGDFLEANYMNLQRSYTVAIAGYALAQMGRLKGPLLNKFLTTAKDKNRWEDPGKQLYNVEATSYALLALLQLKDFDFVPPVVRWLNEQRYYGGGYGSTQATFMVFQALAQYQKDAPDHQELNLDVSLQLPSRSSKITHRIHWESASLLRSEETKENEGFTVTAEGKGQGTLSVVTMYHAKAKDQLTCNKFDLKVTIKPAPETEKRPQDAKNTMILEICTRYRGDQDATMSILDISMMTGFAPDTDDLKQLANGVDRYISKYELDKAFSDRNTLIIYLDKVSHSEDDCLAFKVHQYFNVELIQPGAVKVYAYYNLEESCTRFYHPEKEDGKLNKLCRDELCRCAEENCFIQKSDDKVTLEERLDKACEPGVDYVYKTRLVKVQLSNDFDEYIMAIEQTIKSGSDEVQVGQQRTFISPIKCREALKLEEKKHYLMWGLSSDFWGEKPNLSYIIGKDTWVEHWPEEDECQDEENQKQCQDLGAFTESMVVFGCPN
Experiment: cell-based or functional assay

Row | Binder | Hemolytic Assay IC50, Human AP | Hemolytic Assay IC50, Human CP
10 | B1 | 9.2 nM | 6.7 nM
11 | B2 | 6.8 nM | 10.4 nM
12 | B3 | 5.7 nM | 5 nM
13 | B4 | 3.7 nM | 3.8 nM
14 | B5 | 8 nM | 6.5 nM
15 | B6 | 6.6 nM | 4.2 nM
16 | B7 | 8.5 nM | 7.6 nM
17 | B8 | 6.5 nM | 4.1 nM
18 | B9 | 4.2 nM | 3.6 nM

Target: T3, Factor Bb (UniProt P00751 260-764)
T3 construct: domain: Factor Bb
Experiment: binding screen of Example 5; method and unit not stated

Row | Binder | binding relative to negative control mIgG2
19 | B1 | -0.01
20 | B6 | -0.02
21 | B9 | -0.01

Target: C3a (human, UniProt P01024 672-748)
Sequence (P01024 672-748 limits assumed): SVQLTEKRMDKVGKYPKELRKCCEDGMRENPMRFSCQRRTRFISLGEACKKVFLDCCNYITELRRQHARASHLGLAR
Experiment: as above

Row | Binder | binding relative to negative control mIgG2
22 | B1 | 0
23 | B2 | -0.01
24 | B3 | -0.04
25 | B5 | 0.11
26 | B6 | -0.03
27 | B8 | -0.02
28 | B9 | -0.01

Target: T4, C3d (UniProt P01024 1002-1303, limits assumed)
T4 construct: domain: C3d
T4 sequence (P01024 1002-1303 limits assumed): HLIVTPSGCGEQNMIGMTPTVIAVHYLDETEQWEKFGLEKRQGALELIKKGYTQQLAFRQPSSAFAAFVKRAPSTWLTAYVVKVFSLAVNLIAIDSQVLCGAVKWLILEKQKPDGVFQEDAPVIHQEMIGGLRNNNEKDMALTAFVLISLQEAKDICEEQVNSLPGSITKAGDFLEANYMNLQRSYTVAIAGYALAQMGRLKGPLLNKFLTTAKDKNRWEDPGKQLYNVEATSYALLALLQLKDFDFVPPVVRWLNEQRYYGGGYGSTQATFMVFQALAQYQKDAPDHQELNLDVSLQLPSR
Experiment: as above

Row | Binder | binding relative to negative control mIgG2
29 | B1 | 0.01
30 | B2 | 0
31 | B3 | 0.01
32 | B5 | 0.01
33 | B6 | -0.02
34 | B8 | 0.01
35 | B9 | 0.01

Target: T2, human complement component C3
Experiment: as above

Row | Binder | binding relative to negative control mIgG2
36 | B1 | 0.83
37 | B2 | 0.37
38 | B3 | 0.7
39 | B5 | 0.66
40 | B6 | 0.83
41 | B8 | 0.95
42 | B9 | 0.47

Target: C3b (human, UniProt P01024 23-667; P01024 749-1663)
Sequence (P01024 23-667 limits assumed, chain 1 of 2): as the sequence (P01024 23-667, chain 1 of 2) above
Sequence (P01024 749-1663 limits assumed, chain 2 of 2): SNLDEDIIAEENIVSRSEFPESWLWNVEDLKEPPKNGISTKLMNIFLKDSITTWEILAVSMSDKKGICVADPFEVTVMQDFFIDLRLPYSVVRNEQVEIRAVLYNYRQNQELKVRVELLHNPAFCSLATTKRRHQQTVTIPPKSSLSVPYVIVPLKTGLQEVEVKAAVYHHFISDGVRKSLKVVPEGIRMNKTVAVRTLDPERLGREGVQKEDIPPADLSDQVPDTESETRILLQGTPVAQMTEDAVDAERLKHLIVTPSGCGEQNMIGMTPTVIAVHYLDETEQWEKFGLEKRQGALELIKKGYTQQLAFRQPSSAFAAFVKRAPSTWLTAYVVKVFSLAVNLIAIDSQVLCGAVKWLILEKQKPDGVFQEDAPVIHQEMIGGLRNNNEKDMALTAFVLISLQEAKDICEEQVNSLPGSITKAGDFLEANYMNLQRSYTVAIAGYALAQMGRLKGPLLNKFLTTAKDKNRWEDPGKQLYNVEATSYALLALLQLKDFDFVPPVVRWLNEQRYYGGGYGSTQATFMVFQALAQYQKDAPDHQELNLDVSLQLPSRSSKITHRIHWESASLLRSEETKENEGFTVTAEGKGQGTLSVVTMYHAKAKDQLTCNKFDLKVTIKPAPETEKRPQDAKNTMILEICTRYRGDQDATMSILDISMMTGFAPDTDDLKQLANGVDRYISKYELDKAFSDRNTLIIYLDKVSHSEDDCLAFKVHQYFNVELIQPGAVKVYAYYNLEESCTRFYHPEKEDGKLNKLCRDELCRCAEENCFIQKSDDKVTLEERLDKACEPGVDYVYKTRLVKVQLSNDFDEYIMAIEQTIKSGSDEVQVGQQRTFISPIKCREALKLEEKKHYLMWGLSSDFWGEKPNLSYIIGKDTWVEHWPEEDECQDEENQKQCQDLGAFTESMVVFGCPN
Experiment: as above

Row | Binder | binding relative to negative control mIgG2
43 | B1 | 0.66
44 | B2 | 0.33
45 | B3 | 0.61
46 | B5 | 0.09
47 | B6 | 0.76
48 | B8 | 0.83
49 | B9 | 0.38

Target: T1, cynomolgus monkey complement component …
Experiment: cell-based or functional assay
Remark: another data set of the same source

Row | Binder | Alternative Pathway IC50 (hemolysis), Cyno C3 | Classical Pathway IC50 (hemolysis), Cyno C3
50 | B10 | 4.8 nM | 0.6 nM

Target: T2, human complement component C3
Experiment: cell-based or functional assay
Remark: another data set of the same source

Row | Binder | Alternative Pathway IC50 (hemolysis), Human C3 | Classical Pathway IC50 (hemolysis), Human C3
51 | B10 | 3.9 nM | 5.4 nM

Target: T2, human complement component C3
Experiment: SPR (Biacore)
Description: (§1) The binding affinities of exemplary anti-C3 antibodies to human C3 and cyno C3 were measured using a Biacore system (GE Healthcare LifeSciences). Briefly, anti-Fc antibody (Sigma-Aldrich) was immobilized on all four flow cells of a CM5 chip using amine coupling reagents (GE Healthcare LifeSciences). Antibodies were captured on flow cells 2, 3, and 4 using flow cell 1 as a reference. Concentrations ranging from 0.62-40 nM of human C3 or cyno C3 were injected at a flow rate of 50 μL/min at 37° C. Kinetic data were collected over time and fit using the simultaneous global fit equation to yield affinity constants (KD values) for each antibody.

Row | Binder | Kd | binding result
52 | B10 | 0.27 nM | 
53 | B11 |  | binds
54 | B12 | 6.2 nM | 
55 | B13 | 0.82 nM | 
56 | B14 | 0.23 nM | 

Target: T2, human complement component C3
Experiment: cell-based or functional assay
Remark: another data set of the same source

Row | Binder | AP human C3 IC50 (hemolysis) | CP human C3 IC50 (hemolysis)
57 | B15 | 16 nM | 17.8 nM

Target: T1, cynomolgus monkey complement component …
Experiment: SPR (Biacore), antibody captured by anti-Fc, C3 injected 0.62-40 nM, 37 C
Description: as §1

Row | Binder | Kd
58 | B4 | 0.13 nM
59 | B9 | 1.4 nM

Target: T2, human complement component C3
Experiment: as above
Description: as §1

Row | Binder | Kd
60 | B4 | 0.13 nM
61 | B9 | 1.9 nM

Reference: patent US20190322730A1 (NGM BIOPHARMACEUTICALS, published 2019)
